Reference: the domain aggregation screens of Martell et al. (2025)

Assay: soluble fraction after stress (log2 fold change); higher = more stays soluble; pooled small domains, quantitative proteomics
Conditions: stress: 50 degC
Method in brief: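 After stress at 50°C, the amount of each protein still soluble was measured. This was done on pooled custom libraries of small protein domains, using high-throughput quantitative proteomics. The figure given is a base-two log fold change and stands for aggregation propensity, with higher values meaning more protein stays in solution.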

Going from “HMNILDPTVMKNILDKNHEEFIAIYESAPLGQKTIINSMVFDKRLNGENVDANILMYLQNKTNIDYINIEP” to “HMRNISLSLRWHSGEWTADRLKSEVLALPGAMDMTVFEPQSQAYLRVEQGFDTKLLPAGIDVH”, the “soluble fraction (log2)” value falls from -0.167 to -0.927.

“HMQGYELKMYVTPDTKYSVAVYDAKNEMVSYTMGFSAKAPFGQEGEVLETVKLEFDKLAVGNYELKYWI” and “HMDEVHYLADKERGTTWEEILIHADRDIKFLSLSATINNKNEFLEWLVSLRGTTSLIHSSTRPIPLEI” are within 0.2 log units of each other in “soluble fraction (log2)” value: 0.314 for the first, 0.218 for the second.

“HMERPLFVIEDYRRFAGNEVEISLKKGGKKIRGVIAGTPSDAEVTVRTQGGETTVPLGDVKRAHLVYV” and “HMAVSDAAEEYGKAGTPLVILAGKEYGSGSSRDWAAKGPYLQGVRAVLAESYERIHRSNLVGMGIVPLTYK” are within 0.2 log units of each other in “soluble fraction (log2)” value: 0.123 for the first, 0.0654 for the second.

Going from “HMDEDTWKLYKRAYKKYYARYMKGNMSEAAFKAWGEQAAADRDAAIEQLRATTDAALSASIIQQLKEKLNR” to “HMEASSTAIQAMIRRLIDDENPRKPLSDAKLADLLKSSGIPVARRTVAKYREAMNISASHERVRI”, the “soluble fraction (log2)” value rises from -0.581 to -0.356.

First: HMGLNVSYRMDGENVVETIIFSGATMIRTVTPTGTMTIKTIENGSTSTAKVNADYSVYKKIYEAQY
Second: HMAISEAERARLQTKIKERNKMARWINTNLNPTSKIRNINPAETVRKLMTQDDADSLERSLDAFMEA
The “soluble fraction (log2)” value of the first is lower: -2.59 for the first, -0.0378 for the second.

First: HMHSEISGGSKDPFRFMPHLGVEDIHAETDRLSGSGVEFIREPDQESWGGWVATFKDPDGNILQLLQL
Second: HMKAILHQESRSGFANATVIGGLDKFLDTNWNQLSKYIKKIETPYSDRSLEDRKIWISTILGILSTEI
The “soluble fraction (log2)” value of the first is lower: 0.25 for the first, 0.45 for the second.

Going from “HMISEKEIKIIEDILARWNGKLTWDDFTSKVAKKLNLPSLSKFTLMGYPEIKQAFLTRKQTLK” to “HMGQARQSAIRELGNDPTSGKKITVRSGRYGPYVTDGEVNASLRKGDDPQTIDLDRAIELLAARREKLG”, the “soluble fraction (log2)” value rises from -0.328 to 0.13.

Compared with “HMEAEMLYQVKVKITNLVIRSGAGAIYPIVKRYASGVLPIYEEKNGYGKIAVGQWISLSPEFVERVD”, “HMVNSIQIHKKLRLDKRAGSDNWYARLTLPNGKRLVKTTKTEDIETAKEVALRLYYEVDARIQNKLPAT” is lower in “soluble fraction (log2)” value: -0.385 for the first, -1.45 for the second.

Going from “HMFDPTDLPEKQLMVYEIIKSNNGINMTNIASLLGFNKTTVDNAIRALKKKEIVVFKGTNRSGGYFNT” to “HMASVDDILDRFKQAAKVTTDADLAKVLGLSRQSIAAARLRAKIPASWFPKMSSLFNISTEWLYRG”, the “soluble fraction (log2)” value rises from -1.66 to -0.628.

First: HMGDLKALMPGKVTQVLVSGGQKVKVGEPVLLMESMKMEQTIVATKDGDISEILVSEGDTVEVGKIMIKI
Second: HMDGVLLDHLDGFVTTRRGVEAWLEQPTSFNKPSILLVAADGESTRRAIPSIAFGYDFASRHDIPAYDAG
The “soluble fraction (log2)” value of the first is higher: 0.163 for the first, -0.496 for the second.

Compared with “HMRPRQDRSEETRDRILDAVVELIAERGLAGVSHRAVADRAGVSLSATSYYFGSKAELERAALEEHYRR”, “HMTGGLLVHVAGAVGAPGVVSLPEGARVVDAIEAAGGAREDADTDQLNLARPVVDGEQVRVPVVGEVLE” is higher in “soluble fraction (log2)” value: -0.709 for the first, -0.0748 for the second.

First: HMTETTTVPKLKGLTKDEAEDAAKSSKIKLEFIDEISKTVEAGVIIKQEKDEGETVNAGDTVKVYVSIGT
Second: HMTGINMSYEEYKAMADIIVPLIKAGHSPYHIVTNHPELNISEKTLYNYIENGIFREFGLLDINL
The “soluble fraction (log2)” value of the first is higher: 0.218 for the first, -0.313 for the second.

First: HMQNAETPDVAAEFRTWTSADGQFQVIAKLVKLDGESVHLERQDDGRQIAVPLGKLSSEDRLFLRGVRP
Second: HMESPLEQLTNRELQTLQMLGKGLSTKQIAAQLNLSVKTVETYRENLKRKLNLDSGSELIRYAIHRSNE
The “soluble fraction (log2)” value of the first is lower: 0.0447 for the first, 0.469 for the second.

For “HMTMKQVFIETDANVNQKIMLNEKEAHHLFDVLRTSDKETIRVVTNTSQVFLARVQQKPYIYLFDKMTVE”, the “soluble fraction (log2)” value was -1.41.
